Patent US20230374132A1 (Innovent, published 2023)

B1: hzsp34.27 (antibody, human IgG1, kappa, L234A L235A, V domains shown)
VH: EVQLVESGGGLVQPGGSLKLSCAASGFTFNTYAMNWVRQASGKGLEWVGRIRSKYNNYATYYADSVKDRFTISRDDSKNTLYLQMNSLKTEDTAVYYCARHGNFGNSYVSWFAYWGQGTTVTVSS
VL: EIVMTQSPATLSVSPGERATLSCRSSTGAVTTSNYANWYQQKPGQAPRLLIYGTNKRAPGIPARFSGSGSGTEFTLTISSLQSEDFAVYYCALWYSNLWVFGQGTKLTVLR
notes: IgG1 L234A L235A, kappa
B2: hzsp34.33 (antibody, human IgG1, kappa, L234A L235A, V domains shown)
VH: EVQLVESGGGLVQPGGSLKLSCAASGFTFNTYAMNWVRQASGKGLEWVGRIRSKYNNYATYYADSVKDRFTISRDDSKSTLYLQMNSLKTEDTAVYYCARHGNFGNSYVSWFAYWGQGTTVTVSS
VL: EIVMTQSPATLSVSPGERATLSCRSSTGAVTTSNYANWVQQKPGQAPRLLIGGTNKRAPGVPARFSGSGSGTEFTLTISSLQSEDFAVYYCALWYSNLWVFGQGTKLTVLR
notes: IgG1 L234A L235A, kappa
B3: hzsp34.13 (antibody, human IgG1, lambda, L234A L235A, V domains shown)
VH: EVQLVESGGGLVQPGGSLKLSCAASGFTFNTYAMNWVRQASGKGLEWVGRIRSKYNNYATYYADSVKDRFTISRDDSKSTLYLQMNSLKTEDTAVYYCARHGNFGNSYVSWFAYWGQGTTVTVSS
VL: QAVVTQEPSLTVSPGGTVTLTCRSSTGAVTTSNYANWVQQKPGQAPRTLIGGTNKRAPGVPARFSGSLLGGKAALTLLGAQPEDEAEYYCALWYSNLWVFGQGTKLTVLG
notes: IgG1 L234A L235A, lambda
B4: hzsp34.12 (antibody, human IgG1, lambda, L234A L235A, V domains shown)
VH: EVQLVESGGGLVQPGGSLKLSCAASGFTFNTYAMNWVRQASGKGLEWVGRIRSKYNNYATYYADSVKDRFTISRDDSKNTLYLQMNSLKTEDTAVYYCARHGNFGNSYVSWFAYWGQGTTVTVSS
VL: QAVVTQEPSLTVSPGGTVTLTCRSSTGAVTTSNYANWVQQKPGQAPRTLIGGTNKRAPGVPARFSGSLLGGKAALTLLGAQPEDEAEYYCALWYSNLWVFGQGTKLTVLG
notes: IgG1 L234A L235A, lambda
B5: hzsp34.44 (antibody, human IgG1, kappa, L234A L235A, V domains shown)
VH: EVQLVESGGGLVQPGGSLKLSCAASGFTFNTYAMNWVRQASGKGLEWVGRIRSKYNNYATYYADSVKDRFTISRDDSKSTLYLQMNSLKTEDTAVYYCARHGNFGQSYVSWFAYWGQGTTVTVSS
VL: EIVMTQSPATLSVSPGERATLSCRSSTGAVTTSNYANWVQQKPGQAPRGLIGGTNKRAPGVPARFSGSGSGDEFTLTISSLQSEDFAVYYCALWYSNLWVFGQGTKLTVLR
notes: IgG1 L234A L235A, kappa
B6: hzsp34.43 (antibody, human IgG1, kappa, L234A L235A, V domains shown)
VH: EVQLVESGGGLVQPGGSLKLSCAASGFTFNTYAMNWVRQASGKGLEWVGRIRSKYNNYATYYADSVKDRFTISRDDSKSTLYLQMNSLKTEDTAVYYCARHGNFGNSYVSWFAYWGQGTTVTVSS
VL: EIVMTQSPATLSVSPGERATLSCRSSTGAVTTSNYANWVQQKPGQAPRGLIGGTNKRAPGVPARFSGSGSGDEFTLTISSLQSEDFAVYYCALWYSNLWVFGQGTKLTVLR
notes: IgG1 L234A L235A, kappa
B7: hzsp34.35 (antibody, human IgG1, kappa, L234A L235A, V domains shown)
VH: EVQLVESGGGLVQPGGSLKLSCAASGFTFNTYAMNWVRQASGKGLEWVARIRSKYNNYATYYADSVKDRFTISRDDSKSTLYLQMNSLKTEDTAVYYCARHGNFGQSYVSWFAYWGQGTTVTVSS
VL: EIVMTQSPATLSVSPGERATLSCRSSTGAVTTSNYANWVQQKPGQAPRLLIGGTNKRAPGVPARFSGSGSGTEFTLTISSLQSEDFAVYYCALWYSNLWVFGQGTKLTVLR
notes: IgG1 L234A L235A, kappa
B8: hzsp34.30 (antibody, human IgG1, kappa, L234A L235A, V domains shown)
VH: EVQLVESGGGLVQPGGSLKLSCAASGFTFNTYAMNWVRQASGKGLEWVARIRSKYNNYATYYADSVKDRFTISRDDSKSTLYLQMNSLKTEDTAVYYCARHGNFGQSYVSWFAYWGQGTTVTVSS
VL: EIVMTQSPATLSVSPGERATLSCRSSTGAVTTSNYANWYQQKPGQAPRLLIYGTNKRAPGIPARFSGSGSGTEFTLTISSLQSEDFAVYYCALWYSNLWVFGQGTKLTVLR
notes: IgG1 L234A L235A, kappa
B9: hzsp34.34 (antibody, human IgG1, kappa, L234A L235A, V domains shown)
VH: EVQLVESGGGLVQPGGSLKLSCAASGFTFNTYAMNWVRQASGKGLEWVGRIRSKYNNYATYYADSVKDRFTISRDDSKSTLYLQMNSLKTEDTAVYYCARHGNFGQSYVSWFAYWGQGTTVTVSS
VL: EIVMTQSPATLSVSPGERATLSCRSSTGAVTTSNYANWVQQKPGQAPRLLIGGTNKRAPGVPARFSGSGSGTEFTLTISSLQSEDFAVYYCALWYSNLWVFGQGTKLTVLR
notes: IgG1 L234A L235A, kappa
B10: hzsp34.28 (antibody, human IgG1, kappa, L234A L235A, V domains shown)
VH: EVQLVESGGGLVQPGGSLKLSCAASGFTFNTYAMNWVRQASGKGLEWVGRIRSKYNNYATYYADSVKDRFTISRDDSKSTLYLQMNSLKTEDTAVYYCARHGNFGNSYVSWFAYWGQGTTVTVSS
VL: EIVMTQSPATLSVSPGERATLSCRSSTGAVTTSNYANWYQQKPGQAPRLLIYGTNKRAPGIPARFSGSGSGTEFTLTISSLQSEDFAVYYCALWYSNLWVFGQGTKLTVLR
notes: IgG1 L234A L235A, kappa
B11: hzsp34.32 (antibody, human IgG1, kappa, L234A L235A, V domains shown)
VH: EVQLVESGGGLVQPGGSLKLSCAASGFTFNTYAMNWVRQASGKGLEWVGRIRSKYNNYATYYADSVKDRFTISRDDSKNTLYLQMNSLKTEDTAVYYCARHGNFGNSYVSWFAYWGQGTTVTVSS
VL: EIVMTQSPATLSVSPGERATLSCRSSTGAVTTSNYANWVQQKPGQAPRLLIGGTNKRAPGVPARFSGSGSGTEFTLTISSLQSEDFAVYYCALWYSNLWVFGQGTKLTVLR
notes: IgG1 L234A L235A, kappa
B12: hzsp34.29 (antibody, human IgG1, kappa, L234A L235A, V domains shown)
VH: EVQLVESGGGLVQPGGSLKLSCAASGFTFNTYAMNWVRQASGKGLEWVGRIRSKYNNYATYYADSVKDRFTISRDDSKSTLYLQMNSLKTEDTAVYYCARHGNFGQSYVSWFAYWGQGTTVTVSS
VL: EIVMTQSPATLSVSPGERATLSCRSSTGAVTTSNYANWYQQKPGQAPRLLIYGTNKRAPGIPARFSGSGSGTEFTLTISSLQSEDFAVYYCALWYSNLWVFGQGTKLTVLR
notes: IgG1 L234A L235A, kappa
B13: hzsp34.39 (antibody, human IgG1, kappa, L234A L235A, V domains shown)
VH: EVQLVESGGGLVQPGGSLKLSCAASGFTFNTYAMNWVRQASGKGLEWVGRIRSKYNNYATYYADSVKDRFTISRDDSKSTLYLQMNSLKTEDTAVYYCARHGNFGQSYVSWFAYWGQGTTVTVSS
VL: EIVMTQSPATLSVSPGERATLSCRSSTGAVTTSNYANWVQQKPGQAPRGLIGGTNKRAPGVPARFSGSGSGTEFTLTISSLQSEDFAVYYCALWYSNLWVFGQGTKLTVLR
notes: IgG1 L234A L235A, kappa
B14: hzsp34.7 (antibody, human IgG1, lambda, L234A L235A, V domains shown)
VH: EVQLVESGGGLVQPGGSLKLSCAASGFTFNTYAMNWVRQASGKGLEWVGRIRSKYNNYATYYADSVKDRFTISRDDSKNTLYLQMNSLKTEDTAVYYCARHGNFGNSYVSWFAYWGQGTTVTVSS
VL: QAVVTQEPSLTVSPGGTVTLTCRSSTGAVTTSNYANWFQQKPGQAPRTLIYGTNKRAPWTPARFSGSLLGGKAALTLLGAQPEDEAEYYCALWYSNLWVFGQGTKLTVLG
notes: IgG1 L234A L235A, lambda
B15: hzsp34.37 (antibody, human IgG1, kappa, L234A L235A, V domains shown)
VH: EVQLVESGGGLVQPGGSLKLSCAASGFTFNTYAMNWVRQASGKGLEWVGRIRSKYNNYATYYADSVKDRFTISRDDSKNTLYLQMNSLKTEDTAVYYCARHGNFGNSYVSWFAYWGQGTTVTVSS
VL: EIVMTQSPATLSVSPGERATLSCRSSTGAVTTSNYANWVQQKPGQAPRGLIGGTNKRAPGVPARFSGSGSGTEFTLTISSLQSEDFAVYYCALWYSNLWVFGQGTKLTVLR
notes: IgG1 L234A L235A, kappa

Assays:
[1] = target: T1, cynomolgus monkey CD3 E&D complex protein (Sino Biological Inc., CT032-00323H) (cynomolgus monkey, UniProt Q95LI5 22-117; Q95LI8 22-105); assay: BLI, antibody on sensor
T1 construct: bought heterodimer
T1 sequence (Q95LI5 22-117, chain 1 of 2): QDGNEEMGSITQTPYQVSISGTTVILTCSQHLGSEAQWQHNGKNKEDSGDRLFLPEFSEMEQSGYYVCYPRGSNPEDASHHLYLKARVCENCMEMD
T1 sequence (Q95LI8 22-105, chain 2 of 2): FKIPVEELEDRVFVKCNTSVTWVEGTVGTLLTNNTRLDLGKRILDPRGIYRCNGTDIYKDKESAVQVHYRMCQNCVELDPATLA
Experimental: (§1) 100 μl SD buffer, various antibodies, human CD3 E&D complex protein (Sino Biological Inc., CT026H0323H), and cynomolgus monkey CD3 E&D complex protein (Sino Biological Inc., CT032-00323H) were added into 96-well black polystyrene semi-quantitative micro-well plate (Greiner, 675076) respectively. Fortebio Octet Red 96 was used for detection, and the sensor position was selected according to the sample position. The setting parameters of the instrument are as follows: operation steps: Baseline, Loading-1 nm, Baseline, Association and Dissociation; the operation time of each step depends on the speed of sample association and dissociation. The rotational speed is 1000 rpm and the temperature is 30° C. ForteBio Octet analysis software was used to analyze KD value.

[2] = target: T2, human CD3 E&D complex protein (Sino Biological Inc., CT026H0323H) (human, UniProt P07766 23-126; P04234 22-105); assay: BLI, antibody on sensor
T2 construct: bought heterodimer; also called human CD3 protein (CT026H0323H)
T2 sequence (P07766 23-126, chain 1 of 2): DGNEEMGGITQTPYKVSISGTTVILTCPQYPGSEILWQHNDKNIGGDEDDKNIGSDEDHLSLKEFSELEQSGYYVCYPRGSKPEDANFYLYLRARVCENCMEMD
T2 sequence (P04234 22-105, chain 2 of 2): as the sequence (Q95LI8 22-105, chain 2 of 2) above, with V5I, K15N, V20I, T32S, N33D, N34I, A64T, N74S, L83V counted along it
Experimental: as §1

Binder	binding result [1]	binding result [2]	Kd [1] [nM]	koff [1] [s⁻¹]	kon [1] [M⁻¹ s⁻¹]	Kd [2] [nM]	koff [2] [s⁻¹]	kon [2] [M⁻¹ s⁻¹]
B1	no binding	no binding						
B2	no binding	no binding						
B3			1.75	0.00164	937000	4.33	0.00466	1.08e+06
B4			4.73	0.00226	479000	6.19	0.00396	640000
B5			12.1	0.00293	241000	16.5	0.00581	353000
B6			7.92	0.00201	253000	12.6	0.00453	359000
B7	no binding	no binding						
B8	no binding	no binding						
B9	no binding	no binding						
B10		no binding	2.82	0.00117	415000			
B11	no binding	no binding						
B12	no binding	no binding						
B13			7.1	0.00203	286000	7.85	0.00354	451000
B14		no binding	1.66	0.000463	279000			
B15			6.24	0.002	321000	9.16	0.00399	436000
